Reference: patent EP1040351B1 (Merck & Co., Inc., dated 2007)
Each block holds one molecule with its values, some of them ahead of it.

Experiments:
[1] = molecular target: T1, human melanocortin-4 receptor (human, UniProt P32245 1-332); assay: displacement of 0.2 nM 125I-NDP-α-MSH from membranes of cells stably expressing human MC4R, filtration
T1 construct: whole, on cells; Membrane preparations of stably expressing cells; also called hMC4R; MC4R

[2] = molecular target: anti-Myc mAb-HRP conjugate (Invitrogen); assay: competition ELISA: anti-Myc mAb-HRP on coated Myc peptide, 10x diluted c-ART-b sample as competitor
[3] = molecular target: T2, human melanocortin-3 receptor (human, UniProt P41968 1-323); assay: displacement of 0.2 nM 125I-NDP-α-MSH from membranes of cells stably expressing human MC3R, filtration
T2 construct: whole, on cells; Membrane preparations of stably expressing cells; also called hMC3R; MC3R
T2 sequence (P41968 whole entry): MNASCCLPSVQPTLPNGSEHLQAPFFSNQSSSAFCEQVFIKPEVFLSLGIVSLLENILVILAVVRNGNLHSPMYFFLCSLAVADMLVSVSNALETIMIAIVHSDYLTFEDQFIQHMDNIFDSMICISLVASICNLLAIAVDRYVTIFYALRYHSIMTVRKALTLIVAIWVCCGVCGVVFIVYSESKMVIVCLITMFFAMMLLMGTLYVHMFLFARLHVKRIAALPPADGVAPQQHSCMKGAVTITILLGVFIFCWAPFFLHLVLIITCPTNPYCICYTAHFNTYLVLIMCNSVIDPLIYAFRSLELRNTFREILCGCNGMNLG

T1 sequence (P32245 whole entry): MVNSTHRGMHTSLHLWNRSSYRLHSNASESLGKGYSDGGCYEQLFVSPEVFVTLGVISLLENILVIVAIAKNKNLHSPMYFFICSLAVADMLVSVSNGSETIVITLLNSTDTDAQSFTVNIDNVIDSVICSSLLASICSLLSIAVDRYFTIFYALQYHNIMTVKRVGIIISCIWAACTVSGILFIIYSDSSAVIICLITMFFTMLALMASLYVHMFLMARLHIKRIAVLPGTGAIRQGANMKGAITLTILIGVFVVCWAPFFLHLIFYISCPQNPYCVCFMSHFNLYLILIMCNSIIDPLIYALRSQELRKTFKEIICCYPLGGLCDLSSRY

IC50 [1]: 1.4 nM
absorbance [2]: 0.079
IC50 [3]: 1.9 nM
Molecule: c-ART-b (from UniProt O00253 1-26; O00253 76-132) (ligand)

IC50 [1]: 0.5 nM
IC50 [3]: 1 nM
B1: full-length human ART protein (ligand, UniProt O00253 21-132, looked up, not shown: small tags and cut ends)
chain: AQMGLAPMEGIRRPDQALLPELPGLGLRAPLKKTTAEQAEEDLLQEAQALAEVLDLQDREPRSSRRCVRLHESCLGQQVPCCDPCATCYCRFFNAFCYCRKLGTAMNPCSRT
notes: range 1-132; Recombinant ART as described by Fong et al. 1997 (ART cDNA in pcDNA3.1-Myc-His-A); also called full length ART; full-length ART protein
